Source: patent US20240084003A1 (SIMCERE ZAIMING PHARMACEUTICAL, published 2024)
One block for each binder: values may come before it.

Columns and labels:
[1] = biological target: T1, CD22 on cynomolgus monkey peripheral blood B cells (cynomolgus monkey (Macaca fascicularis)); experiment: FACS, cynomolgus PBMC, CD20+ B cells, antibody 1 nM
T1 construct: whole, on cells; also called cynomolgus monkey B cells
Description: (§1) The monkey peripheral blood mononuclear cells were extracted from fresh cynomolgus monkey peripheral blood (purchased from Shanghai Medicilon Inc.) according to the instructions of Ficoll-Paque Plus (purchased from GE Healthcare, catalog number: 171440-02). After the cell suspension was centrifuged, the cells were resuspended in PBS containing 1% BSA, and then the cells were counted. At the same time, the murine antibody Brilliant Violet 605 anti-human CD20 (catalog number: 302334, purchased from Biolegend) with monkey CD20 cross-binding activity and the chimeric antibodies to be tested (1 nM, 10 nM and 100 nM) were added and incubated at room temperature for 1 hour. After washing the cells three times, APC-labeled secondary antibody anti-human IgG Fc (catalog number: 409306, purchased from Biolegend) was added. After incubation at room temperature in the dark for 30 minutes, the cells were washed 5 times, gently resuspended with PBS containing 1% BSA, and detected and analyzed by FACS (FACS Canto™, purchased from BD Company). Wherein CD20 was used as a marker of B cells, and the CD20-positive B cell population was gated, the proportion of chimeric antibody positive cells was analyzed, and the proportion of chimeric antibody positive cell population to B cell population was calculated after treatments with the chimeric antibodies at the concentrations of 100 nM, 10 nM and 1 nM, respectively. The scatter plot of double-stained cells by Brilliant Violet 605-labeled CD20 and APC secondary antibody indirectly labeled chimeric antibody is shown in FIG. 10A-FIG. 10B (under the condition of 1 nM of chimeric antibody concentration).

[2] = biological target: T1, CD22 on cynomolgus monkey peripheral …; experiment: FACS, cynomolgus PBMC, CD20+ B cells, antibody 10 nM
Description: as §1

[3] = biological target: T1, CD22 on cynomolgus monkey peripheral …; experiment: FACS, cynomolgus PBMC, CD20+ B cells, antibody 100 nM
Description: as §1

[4] = biological target: T2, human CD22, endogenous on Raji cells (human, UniProt P20273 20-847); experiment: FACS, Raji cells
T2 construct: whole, on cells; Endogenous protein of the Raji cell line
T2 sequence (looked up): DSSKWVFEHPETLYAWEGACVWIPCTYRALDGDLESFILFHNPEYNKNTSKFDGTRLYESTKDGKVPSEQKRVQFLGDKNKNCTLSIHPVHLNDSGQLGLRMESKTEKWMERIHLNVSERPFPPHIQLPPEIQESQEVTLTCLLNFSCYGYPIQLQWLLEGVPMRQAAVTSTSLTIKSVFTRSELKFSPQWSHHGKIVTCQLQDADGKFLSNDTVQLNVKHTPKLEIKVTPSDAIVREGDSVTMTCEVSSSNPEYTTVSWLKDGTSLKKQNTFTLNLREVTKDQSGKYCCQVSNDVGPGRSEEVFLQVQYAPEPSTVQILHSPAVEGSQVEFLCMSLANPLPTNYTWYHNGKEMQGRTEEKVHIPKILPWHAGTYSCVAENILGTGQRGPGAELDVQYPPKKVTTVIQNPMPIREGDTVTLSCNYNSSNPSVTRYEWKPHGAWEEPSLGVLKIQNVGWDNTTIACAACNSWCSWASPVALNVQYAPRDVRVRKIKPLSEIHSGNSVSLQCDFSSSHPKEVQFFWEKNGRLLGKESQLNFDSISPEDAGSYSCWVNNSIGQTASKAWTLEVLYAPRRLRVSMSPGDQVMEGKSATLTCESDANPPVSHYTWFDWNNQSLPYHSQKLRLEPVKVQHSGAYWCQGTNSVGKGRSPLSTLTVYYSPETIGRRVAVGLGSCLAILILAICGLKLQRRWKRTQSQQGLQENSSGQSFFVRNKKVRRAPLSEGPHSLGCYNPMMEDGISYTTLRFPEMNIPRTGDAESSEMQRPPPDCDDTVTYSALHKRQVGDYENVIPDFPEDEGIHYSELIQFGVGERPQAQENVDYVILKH
In short: (§2)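 Raji cells and CHO-K1 cells expressing human CD22 were blocked in PBS + 2% BSA at 2×10⁶ cells/ml and incubated with chimeric antibody for 2 h on ice. Bound antibody was detected with an Alexa Fluor 488 secondary for 1 h on ice and read by flow cytometry as MFI. EC50 came from curve fitting.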

[5] = biological target: T3, human CD22, full length, on CHO-K1-human CD22 2C4 cells (human, UniProt P20273 20-847); experiment: FACS, CHO-K1-human CD22 2C4 cells
T3 construct: Full-length human CD22 (NCBI NP_001762.2) stably transfected into CHO-K1
T3 sequence: T2 sequence (looked up)
In short: as §2

[6] = biological target: T4, murine CD22 protein (ACROBiosystems, SI2-M52Ha) (murine, UniProt P35329 22-708); experiment: ELISA, coated murine CD22, 10 nM Ab
T4 construct: extracellular domain; also called murine CD22-ECD; murine CD22-ECD-His
T4 sequence (looked up): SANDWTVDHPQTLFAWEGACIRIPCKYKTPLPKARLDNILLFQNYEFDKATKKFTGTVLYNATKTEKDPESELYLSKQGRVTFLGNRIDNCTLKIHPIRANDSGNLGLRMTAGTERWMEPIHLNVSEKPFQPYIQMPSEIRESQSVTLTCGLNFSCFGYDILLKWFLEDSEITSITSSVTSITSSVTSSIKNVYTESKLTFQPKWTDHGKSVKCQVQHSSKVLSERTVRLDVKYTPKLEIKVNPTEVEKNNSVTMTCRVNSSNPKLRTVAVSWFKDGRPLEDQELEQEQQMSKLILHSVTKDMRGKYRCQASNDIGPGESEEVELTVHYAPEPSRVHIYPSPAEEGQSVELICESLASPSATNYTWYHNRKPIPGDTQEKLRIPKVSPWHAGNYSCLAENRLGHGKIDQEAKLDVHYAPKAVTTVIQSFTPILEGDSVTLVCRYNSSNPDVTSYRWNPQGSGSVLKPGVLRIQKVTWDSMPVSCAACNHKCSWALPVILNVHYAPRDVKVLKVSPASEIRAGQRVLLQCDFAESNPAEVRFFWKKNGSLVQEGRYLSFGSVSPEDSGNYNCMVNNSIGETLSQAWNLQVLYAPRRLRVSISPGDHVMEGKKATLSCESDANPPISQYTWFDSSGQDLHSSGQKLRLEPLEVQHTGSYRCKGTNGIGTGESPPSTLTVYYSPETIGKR
In short: (§3)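 Coat 2 μg/mL CD22 in PBS, overnight 4° C; block PBS/2% BSA 2 h RT. Ab 2 h 37° C; HRP anti-species secondary 2 h 37° C. TMB 30 min RT, stop 1.0 N HCl.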

[7] = biological target: T4, murine CD22 protein (ACROBiosystems, …); experiment: ELISA, coated murine CD22, 0.1 nM Ab
In short: as §3

[8] = biological target: T4, murine CD22 protein (ACROBiosystems, …); experiment: ELISA, coated murine CD22, 100 nM Ab
In short: as §3

[9] = biological target: T4, murine CD22 protein (ACROBiosystems, …); experiment: ELISA, coated murine CD22, 0.01 nM Ab
In short: as §3

[10] = biological target: T4, murine CD22 protein (ACROBiosystems, …); experiment: ELISA, coated murine CD22, 0.001 nM Ab
In short: as §3

[11] = biological target: T4, murine CD22 protein (ACROBiosystems, …); experiment: ELISA, coated murine CD22, 0.0001 nM Ab
In short: as §3

[12] = biological target: T4, murine CD22 protein (ACROBiosystems, …); experiment: ELISA, coated murine CD22, 0.00001 nM Ab
In short: as §3

Proportion of chimeric antibody positive cells to B cells (%) [1]: 16%
Proportion of chimeric antibody positive cells to B cells (%) [2]: 21%
Proportion of chimeric antibody positive cells to B cells (%) [3]: 29%
B1: F1.161.7 (antibody, human IgG1, kappa, V domains shown)
VH: QVQLQQPGAELVKPGASVKMSCKASGYTFTSYWISWVKQRPGQGLEWIGDIYPGTGSSNYNEKFKSKATLTVDTSSSTAYMQLSSLTSEDSAVYYCARLKFEGIGYWGQGTTLTVSS
VL: QIVLTQSPAIMSASLGEEITLTCSASSSVSYMHWFQQKSGTSPKLLIYSISNLASGVPSRFSGSGSGTFYSLTISSVEAEDAADYYCHQWSSYPWTFGGGTKLEIKR
notes: human-murine chimeric IgG1 kappa

EC50 [4]: 1.1 nM
Maximum mean fluorescence intensity [4]: 25600 MFI
EC50 [5]: 1.31 nM
Maximum mean fluorescence intensity [5]: 29200 MFI
OD450 [6]: 0.06 OD450
OD450 [7]: 0.05 OD450
OD450 [8]: 0.08 OD450
OD450 [9]: 0.05 OD450
OD450 [10]: 0.05 OD450
OD450 [11]: 0.06 OD450
OD450 [12]: 0.07 OD450
B2: F1.62.10 human-murine chimeric antibody (antibody, human IgG1, kappa, V domains shown)
VH: QVQLQQSGPELVKPGASVKISCKASGYEFSSIWMNWVKQRPGEGLEWIGRIFPGDGEINYNEKFKGKATLTADRSSTTAYMQLSSLTSEDSAVYFCAGWRIYYGTYGAMDYWGQGTSVTVSS
VL: DIQMTQITSSLSASLGDRVTISCRASQDIGNYLNWYQQKPDGTVKLLIYYTSRLHSGVPSRFSGSGSRTDYSLTISNLQQEDIATYFCQQGNTLPWTFGGGTKLEIKR
notes: Chimeric, human IgG1 / kappa

Proportion of chimeric antibody positive cells to B cells (%) [1]: 20%
Proportion of chimeric antibody positive cells to B cells (%) [2]: 21%
Proportion of chimeric antibody positive cells to B cells (%) [3]: 22%
B3: F2.127.11 (antibody, human IgG1, lambda, V domains shown)
VH: QVTLKESGPGILQPSQTLSLTCSFSGFSLSTFGMGVGWIRQPSGKGLEWLAHIWWDDDKHYNPALKSRLTISKDTSRNQVFLKIANVDTADGATYFCARDNWVSSLDYWGQGTSVIVSS
VL: QPVITQSSSASFSLGASAELTCTLSSQHSTYTIEWYQQQPLKPPKYVMGLKKDGSHSTGDGIPDRFSGSSSGADRYLSISNIQPEDEAIYICGVSDTIKEQFVYVFGGGTKVTVLG
notes: human-murine chimeric IgG1 lambda; VL name legible
